Source: US20250154283A1 (published 2025)
Substitutions are numbered along the chain they refer to.

How the values were obtained:
[1] = target: T1, biotinylated human VWF cysteine knot (CK) domain construct (human, biotin on the in vitro biotinylation tag (residue not stated); one N-glycan); assay: SPR, scFv captured on anti-SV5, pH 7.4
T1 construct: Disulfide-linked homodimer; also called biotinylated human VWF CK domain; human VWF CK domain construct
T1 chain: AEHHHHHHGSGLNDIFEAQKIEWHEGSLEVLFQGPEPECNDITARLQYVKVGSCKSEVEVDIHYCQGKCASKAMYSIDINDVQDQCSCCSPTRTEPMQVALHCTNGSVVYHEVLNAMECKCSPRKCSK

[2] = target: T2, His-StrepTagII-HRV3C-human VWF-CK-HA-tag (human); assay: solution-phase equilibrium binding, free antibody by ELISA; apparent Kd; pH 5.5; mean ± SD, n=2
T2 construct: it begins with the VWF signal peptide, whose limits were marked only by underlining that is lost in the text, so it was not cut off; The CK domain forms disulfide-linked homodimers (CK dimer); also called recombinant human CK domain; Human CK
T2 chain: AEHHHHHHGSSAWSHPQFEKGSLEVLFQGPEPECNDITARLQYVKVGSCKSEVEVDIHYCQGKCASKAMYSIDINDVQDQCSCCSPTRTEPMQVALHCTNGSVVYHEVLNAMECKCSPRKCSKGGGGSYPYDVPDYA
Method: (§1) Following incubation for 30 min at room temperature to establish equilibrium, unbound antibody was quantified by ELISA using the immobilized human CK domain for capture and HRP-conjugated goat anti-human IgG Fc antibody for detection.
(§2) Following a single wash of the plate with 200 μL of wash buffer (TBS containing 0.05% (v/v) Tween-20 and 5 mM CaCl₂), the plate was blocked by incubation with 200 μL blocking buffer (TBS containing 5 mM CaCl₂ and 1% (w/w) BSA) for 1 hour at room temperature. […] Incubation lasted 3 min and was followed by 5-min incubation with 100 μL HRP-conjugated goat anti-human IgG Fc antibody for detection (1 mg/mL stock diluted 1:20,000 in blocking buffer). Before and after addition of a detection antibody, the plate was washed 5 times with 200 μL wash buffer. A chromogenic horseradish peroxidase (HRP) substrate (100 μL) was then added and following color development for 3 min, 100 μL ELISA stop solution were added to quench the reaction. Absorbance was measured at 450 nm with subtraction of the absorbance at 620 nm.
(§3) The standard curve prepared with free antibody was fitted to a Sigmoidal four-parameter logistic (4PL) model.

human plasma-derived VWF = target: T3, human plasma-derived VWF (human, UniProt P04275 764-2813); assay: solution-phase equilibrium binding, free antibody by ELISA; apparent Kd; pH 7.4; mean ± SD, n=2
T3 construct: multimeric; also called pd-VWF; Human VWF
Method: as §1, §2, §3

[3] = target: T2, His-StrepTagII-HRV3C-human VWF-CK-HA-tag; assay: as above
Method: as §1, §2, §3

[4] = target: T4, His-StrepTagII-HRV3C-cyno VWF-CK-HA-tag (cynomolgus monkey); assay: as above
T4 construct: it begins with the VWF signal peptide, whose limits were marked only by underlining that is lost in the text, so it was not cut off; The CK domain forms disulfide-linked homodimers; also called recombinant cyno CK domain; Cyno CK
T4 chain: T2 chain with N35S, A95P, E113Q, K115E
Method: as §1, §2, §3

VWF in human plasma [5] = target: T5, VWF in human plasma (human, UniProt P04275 764-2813); assay: VWF:FVIIIB enzyme immunoassay; human plasma (5 donors) 17 h 37 °C with 200 nM antibody; FVIII bound to captured VWF relative to untreated plasma; ligand FVIII
T5 construct: Endogenous VWF in donor plasma, not purified; multimeric; also called VWF in plasma; VWF in platelet rich plasma

VWF in human plasma [6] = target: T5, VWF in human plasma; assay: VWF:FVIIIB enzyme immunoassay; human plasma (5 donors) 17 h 37 °C with 600 nM antibody; FVIII bound to captured VWF relative to untreated plasma; ligand FVIII
VWF in human plasma [7] = target: T5, VWF in human plasma; assay: collagen type III binding ELISA; human plasma (5 donors) 17 h 37 °C with 600 nM antibody; VWF bound to collagen relative to untreated plasma; ligand collagen type III
Method: Following incubation, collagen binding was determined relative to untreated plasma.

VWF in human plasma [8] = target: T5, VWF in human plasma; assay: flow cytometry, FITC anti-VWF on platelets; human PRP (2 donors), 0.5 mg/ml ristocetin, 600 nM antibody; relative to the same plasma without antibody; receptor platelet gp1b
Method: PRP was prepared by centrifuging the blood at 250 g for 15 min. […] Sample analysis was performed on a flow cytometer. Using forward (FSC) and sideward (SSC) scatter pattern, a gate was placed on the platelets.

[9] = target: T6, His-StrepTagII-HRV3C-cyno VWF-CK-HA-tag (cynomolgus monkey); assay: solution-phase equilibrium binding, unbound antibody by ELISA
T6 construct: also called recombinant cyno CK domain; cyno CK
T6 chain: T2 chain with N35S, A95P, E113Q, K115E

[10] = target: T7, human plasma-derived von Willebrand Factor (VWF) (human, UniProt P04275 764-2813); assay: VWF:FVIIIB enzyme immunoassay, FVIII binding capacity of plasma VWF after incubation with 200 or 600 nM antibody; FVIII as the partner tested
T7 construct: also called pd-VWF; human plasma-derived VWF

B1: 5802_Lib4_scFv (scFv, not shown: small tags and cut ends)
scFv: QVQLQESGPGLVKPSQTLSLTCTVSGYSISSGDYHWSWIRQPPGKGLEWIGYINPSGSADYNPSLKSRVTMSVDTSKNQFSLKVNSVTAADTAVYYCARDGVAATYYYYYGMDVWGQGTTVTVSSSGGSTITSYNVYYTKLSSSGTEIVMTQSPATLSLSPGERATLSCRASHSIGSNLAWYQQKPGQAPRLLIYDATTRATGIPARFSGSGSGTDFTLTISSLEPEDFAVYYCQQAYSFPLTFGGGTKVEIK
[1]
  binding result: binds

B2: Lib1_P1_A6_scFv (scFv, not shown: small tags and cut ends)
scFv: QVQLVQSGAEVKKPGASVKVSCKVSGSTFSNYAIHWVRQAPGKGLEWMGGIVPLSGTAIYAQKFQGRVTMTEDTSTDTAYMELSSLKSEDTAVYYCARDQGESSGWYAIYYGMDVWGQGTTVTVSSSGGSTITSYNVYYTKLSSSGTDIQMTQSPSSVSASVGDRVTITCRASQGIGTWLAWYQQKPGKAPKLLIYGSSSRASGVPSRFSGSGSGTDFTLTISSLQPEDFANYYCQQSYGKPTFGGGTKVEIK
[1]
  binding result: binds

B3: Lib1_P1_G3 OA (antibody, human IgG4 S228P, kappa, F234A L235A)
heavy: QVQLVQSGAEVKKPGASVKVSCKVSGYTSRQYIHWVRQAPGKGLEWMGWVTPIFGTTNYAQKFQGRVTMTEDTSTDTAYMELSSLKSEDTAVYYCAREWTGTTAFDIWGQGTLVTVSSASTKGPSVFPLAPCSRSTSESTAALGCLVKDYFPEPVTVSWNSGALTSGVHTFPAVLQSSGLYSLSSVVTVPSSSLGTKTYTCNVDHKPSNTKVDKRVESKYGPPCPPCPAPEAAGGPSVFLFPPKPKDTLMISRTPEVTCVVVDVSQEDPEVQFNWYVDGVEVHNAKTKPREEQFNSTYRVVSVLTVLHQDWLNGKEYKCKVSNKGLPSSIEKTISKAKGQPREPQVYTLPPSQEEMTKNQVSLSCAVKGFYPSDIAVEWESNGQPENNYKTTPPVLDSDGSFFLVSRLTVDKSRWQEGNVFSCSVMHEALHNHYTQKSLSLSLG
chain: ESKYGPPCPPCPAPEAAGGPSVFLFPPKPKDTLMISRTPEVTCVVVDVSQEDPEVQFNWYVDGVEVHNAKTKPREEQFNSTYRVVSVLTVLHQDWLNGKEYKCKVSNKGLPSSIEKTISKAKGQPREPQVYTLPPSQEEMTKNQVSLWCLVKGFYPSDIAVEWESNGQPENNYKTTPPVLDSDGSFFLYSRLTVDKSRWQEGNVFSCSVMHEALHNHYTQKSLSLSLG
light: DIQMTQSPSSVSASVGDRVTITCRASQDIGHYLAWYQQKPGKAPKLLIYAASNRASGVPSRFSGSGSGTDFTLTISSLQPEDFANYYCQQGYSAPYGFGGGTKVEIKRTVAAPSVFIFPPSDEQLKSGTASVVCLLNNFYPREAKVQWKVDNALQSGNSQESVTEQDSKDSTYSLSSTLTLSKADYEKHKVYACEVTHQGLSSPVTKSFNRGEC
[2]
  Kd: 0.0323 µM
Human plasma-derived VWF
  Kd: 0.0053 µM
[3]
  Kd: 0.0043 µM
[4]
  Kd: 0.011 µM
VWF in human plasma [5]
  VWF:FVIII level (% of control): 84.5 % of control
VWF in human plasma [6]
  VWF:FVIII level (% of control): 85.8 % of control
VWF in human plasma [7]
  Collagen binding (% control): 108 % control
VWF in human plasma [8]
  Platelet binding (% control): 101 % control

B4: 399_Lib1 OA (antibody, human IgG4 S228P, kappa, F234A L235A)
heavy: QVQLVQSGAEVKKPGASVKVSCKVSGITFTSDYIHWVRQAPGKGLEWMGGMNPYSNKAIYAQKFQGRVTMTEDTSTDTAYMELSSLKSEDTAVYYCATGGLRIAARTSYFDYWGQGTLVTVSSASTKGPSVFPLAPCSRSTSESTAALGCLVKDYFPEPVTVSWNSGALTSGVHTFPAVLQSSGLYSLSSVVTVPSSSLGTKTYTCNVDHKPSNTKVDKRVESKYGPPCPPCPAPEAAGGPSVFLFPPKPKDTLMISRTPEVTCVVVDVSQEDPEVQFNWYVDGVEVHNAKTKPREEQFNSTYRVVSVLTVLHQDWLNGKEYKCKVSNKGLPSSIEKTISKAKGQPREPQVYTLPPSQEEMTKNQVSLSCAVKGFYPSDIAVEWESNGQPENNYKTTPPVLDSDGSFFLVSRLTVDKSRWQEGNVFSCSVMHEALHNHYTQKSLSLSLG
chain: B3 chain
light: DIQMTQSPSSVSASVGDRVTITCRASMDIAGSLAWYQQKPGKAPKLLIYDTSFRATGVPSRFSGSGSGTDFTLTISSLQPEDFANYYCQQYDNPPRLTFGGGTKVEIKRTVAAPSVFIFPPSDEQLKSGTASVVCLLNNFYPREAKVQWKVDNALQSGNSQESVTEQDSKDSTYSLSSTLTLSKADYEKHKVYACEVTHQGLSSPVTKSFNRGEC
notes: monovalent one-arm human IgG4
[9]
  fold change in Kd, cyno CK against human CK: < 2 fold

B5: Lib1_P1_G3 OA (antibody, human IgG4 S228P, kappa, F234A L235A)
heavy: B3 heavy
chain: B3 chain
light: B3 light
notes: monovalent one-arm human IgG4
[9]
  fold change in Kd, cyno CK against human CK: < 2 fold
[10]
  VWF:FVIII level (% of untreated donor-matched plasma): > 80%

B6: Lib1_P1_A9 OA (antibody, human IgG4 S228P, kappa, F234A L235A)
heavy: QVQLVQSGAEVKKPGASVKVSCKVSGDTLSSYGIHWVRQAPGKGLEWMGGSIPSFGTAIYAQKFQGRVTMTEDTSTDTAYMELSSLKSEDTAVYYCTSEGPWLPFFSFDYWGQGTLVTVSSASTKGPSVFPLAPCSRSTSESTAALGCLVKDYFPEPVTVSWNSGALTSGVHTFPAVLQSSGLYSLSSVVTVPSSSLGTKTYTCNVDHKPSNTKVDKRVESKYGPPCPPCPAPEAAGGPSVFLFPPKPKDTLMISRTPEVTCVVVDVSQEDPEVQFNWYVDGVEVHNAKTKPREEQFNSTYRVVSVLTVLHQDWLNGKEYKCKVSNKGLPSSIEKTISKAKGQPREPQVYTLPPSQEEMTKNQVSLSCAVKGFYPSDIAVEWESNGQPENNYKTTPPVLDSDGSFFLVSRLTVDKSRWQEGNVFSCSVMHEALHNHYTQKSLSLSLG
chain: B3 chain
light: DIQMTQSPSSVSASVGDRVTITCRASQGISRNLAWYQQKPGKAPKLLIYKASSLASGVPSRFSGSGSGTDFTLTISSLQPEDFANYYCQQSFSTPVTFGGGTKVEIKRTVAAPSVFIFPPSDEQLKSGTASVVCLLNNFYPREAKVQWKVDNALQSGNSQESVTEQDSKDSTYSLSSTLTLSKADYEKHKVYACEVTHQGLSSPVTKSFNRGEC
notes: also called monovalent (one-arm) Lib1_P1_A9
[9]
  fold change in Kd, cyno CK against human CK: < 2 fold
[10]
  VWF:FVIII level (% of untreated donor-matched plasma): > 80%

B7: 399_Lib1 OA (antibody, human IgG4 S228P, kappa, F234A L235A)
heavy: B4 heavy
chain: B3 chain
light: B4 light
[3]
  Kd: 0.013 µM
[4]
  Kd: 0.0168 µM
